Data: patent US20250215397A1, “TWO-DIMENSIONAL CULTURE METHOD HAVING CLEAR CHEMICAL COMPOSITION FOR CULTURING THREE-DIMENSIONAL INTESTINAL ORGANOID-DERIVED INTESTINAL STEM CELL AGGREGATE” (KOREA RESEARCH INSTITUTE OF BIOSCIENCE AND BIOTECHNOLOGY, priority 2022, published 2025)

How the values were obtained:
Assay type in all cases: cell-based, human
[1] = tested on: two-dimensional intestinal stem cell population; test: Subculture of two-dimensional intestinal stem cells, engraftment / cell number; conditions: factor removed from culture medium, subculture; FIG. 12
Protocol: (§1) The three-dimensional intestinal organoids were isolated from a Matrigel dome and the remaining three-dimensional intestinal organoids were removed as much as possible by pipetting. The separated organoids were placed in 1 ml of 0.25% trypsin-EDTA (TE, Invitrogen) and incubated at 37° C. a water bath for about 5 minutes. Then, pipetting was performed less than five times so that the organoids were allowed to be isolated into single cells and small clumps, and a basal medium was added so that the total volume thereof was 10 ml. The cells fed into a centrifuge were placed on culture dishes coated with feeder cells or 1% of Matrigel (Corning). […]
(§2) The two-dimensional intestinal stem cell population was plated on a culture dish coated with 1% of Matrigel and then cultured for 2 to 7 days. […] After centrifugation, a medium was added to isolate the cells into single cells, and then the number of cells was measured using CountessIII cell counter (Thermo Scientific. Inc.).

[2] = tested on: two-dimensional intestinal stem cell population; test: Differentiation into 2.5-dimensional intestinal epithelial cells by air-liquid interface culture, medium factor screening; conditions: minimal medium composition; FIG. 24
Protocol: The intestinal stem cells grown to a density of 70 to 80% were washed 1-2 times with PBS, and then treated with TE in an incubator at 37° C. for 5 to 7 minutes. The intestinal stem cells isolated into single cells were collected and then diluted using the hIO medium. The cells were gathered by centrifugation, supernatant was removed, the intestinal stem cell culture medium was added thereto and sufficiently mixed, and then the number of cells was measured using Countess III cell counter (Thermo Scientific. Inc.). 2.5-3.5×10^5 cells were placed in an insert of 12-transwell plate (Corning) coated with 1% of Matrigel, and cultured in an incubator. After the cell density reached 100%, the culture medium of an upper layer was completely removed, and the culture medium of a lower layer was replaced with a differentiation medium (2 mM of L-glutamine, 1% of Penicillin-Streptomycin, and 15 mM of a HEPES buffer in Advanced DMEM F12) comprising 200 ng/ml of R-spondin 1 (R&D Systems), 100 ng/ml of EGF (R&D Systems), 2.5 µM of Prostaglandin E2 (Sigma-aldrich), 10 μM of SB202190 (Sigma-aldrich), and 10 mM of nicotinamide (Sigma-aldrich). Thereafter, once every 2 days, a surface of the upper layer was washed with the PBS or hIO medium, and the lower layer was replaced with a new differentiation medium and cultured for 8 to 12 days.

[3] = tested on: two-dimensional intestinal stem cell population; test: Two-dimensional culture of intestinal stem cell population with removal of medium factors or inhibitor treatment; conditions: presence or absence of each factor; FIGS. 7-10
Protocol: as §1
To measure viability of a two-dimensional intestinal stem cell population cultured in a culture dish coated with 1% of Matrigel, a kit (LIVE/DEAD Viability/Cytotoxicity Kit, Invitrogen) capable of distinguishing and staining surviving cells and dead cells was used. […] The stained cells were observed through a fluorescence microscope (Olympus).
as §2, with “Inc.). […]” for “Inc.).”

B1: WNT3A: human recombinant WNT3A, Wnt signaling pathway activator (protein, UniProt P56704 19-352, looked up)
Protein Wnt-3a: SYPIWWSLAVGPQYSSLGSQPILCASIPGLVPKQLRFCRNYVEIMPSVAEGIKIGIQECQHQFRGRRWNCTTVHDSLAIFGPVLDKATRESAFVHAIASAGVAFAVTRSCAEGTAAICGCSSRHQGSPGKGWKWGGCSEDIEFGGMVSREFADARENRPDARSAMNRHNNEAGRQAIASHMHLKCKCHGLSGSCEVKTCWWSQPDFRAIGDFLKDKYDSASEMVVEKHRESRGWVETLRPRYTYFKVPTERDLVYYEASPNFCEPNPETGSFGTRDRTCNVSSHGIDGCDLLCCGRGHNARAERRREKCRCVFHWCCYVSCQECTRVYDVHTCK
[1]
  need for long-term subculturing: required to more efficiently perform long-term culturing

B2: R-spondin 1: WNT/R-spondin activator (protein, UniProt Q2MKA7 21-263, looked up)
R-spondin-1: SRGIKGKRQRRISAEGSQACAKGCELCSEVNGCLKCSPKLFILLERNDIRQVGVCLPSCPPGYFDARNPDMNKCIKCKIEHCEACFSHNFCTKCKEGLYLHKGRCYPACPEGSSAANGTMECSSPAQCEMSEWSPWGPCSKKQQLCGFRRGSEERTRRVLHAPVGDHAACSDTKETRRCTVRRVPCPEGQKRRKGGQGRRENANRNLARKESKEAGAGSRRRKGQQQQQQQGTVGPLTSAGPA
[2]
  effect on differentiation into intestinal epithelial cells: excellent effect on differentiation into intestinal epithelial cells
[3]
  role of essential culture medium factor (stemness, proliferation, death): modulate stemness and proliferation of two-dimensional intestinal stem cells

B3: Noggin: BMP inhibitor (protein, UniProt Q13253 28-232, looked up)
Noggin: QHYLHIRPAPSDNLPLVDLIEHPDPIFDPKEKDLNETLLRSLLGGHYDPGFMATSPPEDRPGGGGGAAGGAEDLAELDQLLRQRPSGAMPSEIKGLEFSEGLAQGKKQRLSKKLRRKLQMWLWSQTFCPVLYAWNDLGSRFWPRYVKVGSCFSKRSCSVPEGMVCKPSKSVHLTVLRWRCQRRGGQRCGWIPIQYPIISECKCSC
[1]
  need for long-term subculturing: required to more efficiently perform long-term culturing
